Holding throughout (assay): cleavage_in_vitro
The test system of data set [1] is T1, SphI-HF K100A (Streptomyces phaeochromogenes).
T1 sequence: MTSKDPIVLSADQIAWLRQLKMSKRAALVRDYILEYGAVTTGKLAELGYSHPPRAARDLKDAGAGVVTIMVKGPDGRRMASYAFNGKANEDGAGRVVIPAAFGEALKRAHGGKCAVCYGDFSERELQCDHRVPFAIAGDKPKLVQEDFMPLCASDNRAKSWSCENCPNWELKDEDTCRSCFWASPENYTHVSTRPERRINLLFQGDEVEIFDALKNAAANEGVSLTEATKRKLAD
Particulars: NEB4, 10 mM Mg acetate, 37 C.

The test system of data set [2] is T2, SspI-HF Y98F (Sphaerotilus species).
T2 sequence: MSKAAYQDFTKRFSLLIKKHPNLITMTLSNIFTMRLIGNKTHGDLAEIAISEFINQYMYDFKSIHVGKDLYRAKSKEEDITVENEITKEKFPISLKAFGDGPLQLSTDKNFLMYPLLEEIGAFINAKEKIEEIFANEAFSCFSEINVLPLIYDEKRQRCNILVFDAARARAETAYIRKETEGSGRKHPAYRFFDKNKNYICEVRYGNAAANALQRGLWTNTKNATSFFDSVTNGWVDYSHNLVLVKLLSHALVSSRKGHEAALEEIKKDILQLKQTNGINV
As to conditions: NEB4, 10 mM Mg acetate, 37 C.

Data set [3] concerns the target T3, HindIII (Haemophilus influenzae Rd) (UniProt P43870).
T3 sequence: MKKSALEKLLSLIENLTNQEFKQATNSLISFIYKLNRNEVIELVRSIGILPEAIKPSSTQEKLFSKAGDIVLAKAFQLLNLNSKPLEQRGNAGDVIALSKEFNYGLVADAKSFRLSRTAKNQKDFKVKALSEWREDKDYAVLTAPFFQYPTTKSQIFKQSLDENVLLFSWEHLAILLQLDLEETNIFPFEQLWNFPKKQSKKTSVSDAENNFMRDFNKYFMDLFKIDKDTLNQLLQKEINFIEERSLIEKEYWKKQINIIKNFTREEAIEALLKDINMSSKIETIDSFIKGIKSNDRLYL
Particulars: NEB2, 10 mM MgCl2, 37 C.

Data set [4] has as its system T4, SphI (Streptomyces phaeochromogenes).
T4 sequence: T1 sequence with A100K
As to conditions: NEB1, 10 mM MgCl2, 37 C.

Data set [5] has as its system T5, BspQI (Bacillus sphaericus).
T5 sequence: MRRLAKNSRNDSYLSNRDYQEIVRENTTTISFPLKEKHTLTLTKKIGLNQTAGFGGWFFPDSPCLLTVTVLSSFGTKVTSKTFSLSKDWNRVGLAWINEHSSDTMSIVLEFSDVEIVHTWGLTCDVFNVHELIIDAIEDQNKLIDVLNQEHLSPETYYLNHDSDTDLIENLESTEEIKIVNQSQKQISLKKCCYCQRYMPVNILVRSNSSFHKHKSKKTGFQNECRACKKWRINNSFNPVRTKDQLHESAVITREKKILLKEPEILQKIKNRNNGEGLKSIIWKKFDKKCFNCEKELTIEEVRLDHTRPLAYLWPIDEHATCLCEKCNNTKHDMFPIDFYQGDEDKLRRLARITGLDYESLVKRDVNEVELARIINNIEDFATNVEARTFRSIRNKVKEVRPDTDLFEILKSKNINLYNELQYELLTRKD
Particulars: NEB3, 10 mM MgCl2, 50 C.

Data set [6] has as its target EcoRI-HF K62E (Escherichia coli RY13) (UniProt P00642). As to conditions: NEB4, 10 mM Mg acetate, 37 C.
A further data set concerns BsmBI-HF N185Y/R232A. As to conditions: NEB4, 10 mM Mg acetate, 55 C; listed as BsmBI.
In data set [7] the target is EcoRI (Escherichia coli RY13) (UniProt P00642). Particulars: NEB3, 10 mM MgCl2, 37 C.
For data set [8], the target named is T6, BamHI-HF E163A/E167T (Bacillus amyloliquefaciens) (UniProt P23940).
T6 sequence: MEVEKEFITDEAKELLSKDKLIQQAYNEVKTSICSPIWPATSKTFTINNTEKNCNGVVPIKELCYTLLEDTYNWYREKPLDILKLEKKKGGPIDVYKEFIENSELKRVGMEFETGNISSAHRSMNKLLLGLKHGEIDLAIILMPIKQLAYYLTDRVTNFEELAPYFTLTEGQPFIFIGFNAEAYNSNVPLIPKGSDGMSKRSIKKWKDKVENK
Particulars: NEB4, 10 mM Mg acetate, 37 C.

The subject of the next data set is BstXI. Particulars: NEB4, 10 mM Mg acetate, 55 C.
A further data set deals with BstXI-HF N65A. As to conditions: NEB4, 10 mM Mg acetate, 55 C.
In data set [9] the target is T7, BamHI (Bacillus amyloliquefaciens) (UniProt P23940).
T7 sequence: T6 sequence with A163E, T167E
As to conditions: NEB3, 10 mM MgCl2, 37 C.

A further data set has as its system BsmBI. Particulars: NEB3, 10 mM MgCl2, 55 C.
Data set [10] concerns the target T8, ScaI (Streptomyces caespitosus) (UniProt O52691).
T8 sequence: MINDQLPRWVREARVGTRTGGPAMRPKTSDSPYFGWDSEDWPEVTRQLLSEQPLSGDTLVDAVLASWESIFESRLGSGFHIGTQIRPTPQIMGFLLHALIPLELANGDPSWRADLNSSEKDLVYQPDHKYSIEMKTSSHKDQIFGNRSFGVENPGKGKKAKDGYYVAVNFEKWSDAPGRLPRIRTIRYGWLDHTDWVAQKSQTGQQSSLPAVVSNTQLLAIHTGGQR
As to conditions: NEB2, 10 mM MgCl2, 37 C; printed as 1/8.

Positions count from the first letter of the chain named.

As for lambda DNA, the activity (fidelity index) in data set [1] worked out at 8000; in data set [2] it was 500; in data set [3] it was 250; in data set [4], 64; in data set [5], 32; in data set [6], 16000. The activity (fidelity index) in the data set with BsmBI-HF N185Y/R232A is > 500; in data set [7], 250; in data set [8], > 4000; in the data set with BstXI it was 4; with BstXI-HF N65A, > 250; in data set [9], 32. In addition, the results for the activity (fidelity index) (in the data set with BsmBI; in data set [10]) were 120 and 0.125, respectively.

The record behind these values is US20130115676.
